Source: US20160168247A1 (published 2016)

How the values were obtained:
HSC-F [1] = biological target: T1, HSC-F (cynomolgus monkey, UniProt Q95LI8 22-171; Q95LI7 23-181); assay: FACS binding; Fig 2A
T1 chain: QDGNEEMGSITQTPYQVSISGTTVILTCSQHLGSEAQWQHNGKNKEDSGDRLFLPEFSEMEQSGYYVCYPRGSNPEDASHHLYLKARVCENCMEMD

HSC-F [2] = biological target: T1, HSC-F; assay: FACS binding
HSC-F [3] = biological target: T1, HSC-F; assay: FACS binding

B1: IgG1-huCD3-H1L1 (antibody, V domains shown)
VH: EVKLVESGGGLVQPGGSLRLSCAASGFTFNTYAMNWVRQAPGKGLEWVARIRSKYNNYATYYADSVKDRFTISRDDSKSSLYLQMNNLKTEDTAMYYCVRHGNFGNSYVSWFAYWGQGTLVTVSS
VL: not shown
HSC-F [1]
  EC50: 0.37 µg/mL

B2: bsIgG1-huCD3-H1L3xHER2-LFLEDA (bispecific antibody, V domains shown)
VH 1: EVKLVESGGGLVQPGGSLRLSCAASGFTFNTYAMNWVRQAPGKGLEWVARIRSKYNNYATYYADSVKDRFTISRDDSKSSLYLQMNNLKTEDTAMYYCVRHGNFGNSYVSWFAYWGQGTLVTVSS
VL 1: QAVVTQEPSFSVSPGGTVTLTCRSSTGAVTTSNYANWVQQTPGQAFRGLIGGTNKRAPGVPARFSGSILGNKAALTITGAQADDESDYYCALWYSNLWVFGGGTKLTVL
VH 2: QVQLVQSGAEVKKPGASVKVSCKASGYTFTNYGISWVRQAPGQGLEWMGWLSAYSGNTIYAQKLQGRVTMTTDTSTTTAYMELRSLRSDDTAVYYCARDRIVVRPDYFDYWGQGTLVTVSS
VL 2: EIVLTQSPATLSLSPGERATLSCRASQSVSSYLAWYQQKPGQAPRLLIYDASNRATGIPARFSGSGSGTDFTLTISSLEPEDFAVYYCQQRSNWPRTFGQGTKVEIK
HSC-F [2]
  EC50: 0.25 µg/mL

B3: bsIgG1-huCD3-H1L1xHER2-LFLEDA (bispecific antibody, V domains shown)
VH 1: EVKLVESGGGLVQPGGSLRLSCAASGFTFNTYAMNWVRQAPGKGLEWVARIRSKYNNYATYYADSVKDRFTISRDDSKSSLYLQMNNLKTEDTAMYYCVRHGNFGNSYVSWFAYWGQGTLVTVSS
VL 1: not shown
VH 2: QVQLVQSGAEVKKPGASVKVSCKASGYTFTNYGISWVRQAPGQGLEWMGWLSAYSGNTIYAQKLQGRVTMTTDTSTTTAYMELRSLRSDDTAVYYCARDRIVVRPDYFDYWGQGTLVTVSS
VL 2: EIVLTQSPATLSLSPGERATLSCRASQSVSSYLAWYQQKPGQAPRLLIYDASNRATGIPARFSGSGSGTDFTLTISSLEPEDFAVYYCQQRSNWPRTFGQGTKVEIK
HSC-F [2]
  EC50: 0.32 µg/mL

B4: IgG1-huCD3-H1L1-LFLEDA (antibody, V domains shown)
VH: EVKLVESGGGLVQPGGSLRLSCAASGFTFNTYAMNWVRQAPGKGLEWVARIRSKYNNYATYYADSVKDRFTISRDDSKSSLYLQMNNLKTEDTAMYYCVRHGNFGNSYVSWFAYWGQGTLVTVSS
VL: not shown
HSC-F [3]
  EC50: 0.03 µg/mL

B5: bsIgG1-huCD3-H3L3xHER2-LFLEDA (bispecific antibody, V domains shown)
VH 1: EVKLVESGGGLVKPGRSLRLSCAASGFTFNTYAMNWVRQAPGKGLEWVARIRSKYNNYATYYADSVKDRFTISRDDSKSILYLQMNSLKTEDTAMYYCVRHGNFGNSYVSWFAYWGQGTLVTVSS
VL 1: QAVVTQEPSFSVSPGGTVTLTCRSSTGAVTTSNYANWVQQTPGQAFRGLIGGTNKRAPGVPARFSGSILGNKAALTITGAQADDESDYYCALWYSNLWVFGGGTKLTVL
VH 2: QVQLVQSGAEVKKPGASVKVSCKASGYTFTNYGISWVRQAPGQGLEWMGWLSAYSGNTIYAQKLQGRVTMTTDTSTTTAYMELRSLRSDDTAVYYCARDRIVVRPDYFDYWGQGTLVTVSS
VL 2: EIVLTQSPATLSLSPGERATLSCRASQSVSSYLAWYQQKPGQAPRLLIYDASNRATGIPARFSGSGSGTDFTLTISSLEPEDFAVYYCQQRSNWPRTFGQGTKVEIK
HSC-F [2]
  EC50: 0.26 µg/mL

B6: bsIgG1-huCD3-H3L1xHER2-LFLEDA (bispecific antibody, V domains shown)
VH 1: EVKLVESGGGLVKPGRSLRLSCAASGFTFNTYAMNWVRQAPGKGLEWVARIRSKYNNYATYYADSVKDRFTISRDDSKSILYLQMNSLKTEDTAMYYCVRHGNFGNSYVSWFAYWGQGTLVTVSS
VL 1: not shown
VH 2: QVQLVQSGAEVKKPGASVKVSCKASGYTFTNYGISWVRQAPGQGLEWMGWLSAYSGNTIYAQKLQGRVTMTTDTSTTTAYMELRSLRSDDTAVYYCARDRIVVRPDYFDYWGQGTLVTVSS
VL 2: EIVLTQSPATLSLSPGERATLSCRASQSVSSYLAWYQQKPGQAPRLLIYDASNRATGIPARFSGSGSGTDFTLTISSLEPEDFAVYYCQQRSNWPRTFGQGTKVEIK
HSC-F [2]
  EC50: 0.28 µg/mL
